Data on 1 protein can be found in patent US20150037829A1 (MIT, published 2015).

This data set concerns the molecule itself. Description: gel filtration chromatography, self-association. How it is done:
APX, fluorescent protein, or miniSOG preparations were diluted to the desired concentrations using chilled (4° C.) PBS and then allowed to incubate at room temperature for 30 min to overnight. Samples ([…]) were run on a Waters HPLC system over a Superdex 75 10/300 column (GE Healthcare) that had been pre-equilibrated in PBS, pH 7.4. Samples were run isocratically in PBS at a flow rate of 0.5 mL/min. Elution of APX was monitored at 280 nm and 405 nm (heme absorbance). Empower software (Waters) was used for analysis of elution profiles. Apparent MWs were determined against low molecular weight standards (GE). […] This estimation was applied for all proteins in FIG. 4d except wt APX, which was predominantly dimeric at 0.25 μM. The apparent MW of the monomer for wt APX was assumed to be equal to the apparent MW of mAPX at 0.25 μM.
Background: Size exclusion chromatography separates by hydrodynamic size, large species first.

B1: wild-type pea cytosolic ascorbate peroxidase (APX), N-terminally His6-tagged (enzyme)
chain: RGKSYPTVSPDYQKAIEKAKRKLRGFIAEKKCAPLILRLAWHSAGTFDSKTKTGGPFGTIKHQAELAHGANNGLDIAVRLLEPIKEQFPIVSYADFYQLAGVVAVEITGGPEVPFHPGREDKPEPPPEGRLPDATKGSDHLRDVFGKAMGLSDQDIVALSGGHTIGAAHKERSGFEGPWTSNPLIFDNSYFTELLTGEKDGLLQLPSDKALLTDSVFRPLVEKYAADEDVFFADYAEAHLKLSELGFAEA
modifications: heme cofactor (non-covalent)
notes: the entries describe its self-association (homodimer) in gel filtration; also called wt APX; wtAPX; not shown: N-terminal His6-tag
Turning to B1, the binding result is listed as “binds”.
